Test results: paper doi:10.1101/2022.04.02.486817 (bioRxiv, 2022)

T1: Cμ2 (UniProt P84092 158-435)
T1 sequence (looked up): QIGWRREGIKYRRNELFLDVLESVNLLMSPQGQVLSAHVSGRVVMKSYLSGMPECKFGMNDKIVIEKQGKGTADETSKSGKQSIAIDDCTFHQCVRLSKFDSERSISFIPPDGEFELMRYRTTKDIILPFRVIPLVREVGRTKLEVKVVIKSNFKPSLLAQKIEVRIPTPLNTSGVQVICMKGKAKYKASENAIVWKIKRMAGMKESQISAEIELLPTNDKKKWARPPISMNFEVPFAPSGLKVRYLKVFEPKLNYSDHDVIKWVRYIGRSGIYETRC

B1: FCHO2N1+N2 (domain or fragment, human, UniProt Q0JRZ9 314-357, looked up)
chain: NIPDVDEEGYSIKPETNQNDTKENHFYSSSDSDSEDEEPKKYRI
B2: FCHO1 C peptide (residues 426-448 SEEQVSKNLFGPPLESAFDHEH) (peptide)
peptide: SEEQVSKNLFGPPLESAFDHEH
B3: FCHO1 linker (residues 316-444) (domain or fragment)
chain: TCPEVDEEGFTVRPDVTQNSTAEPSRFSSSDSDFDDEEPRKFYVHIKPAPARAPACSPEAAAAQLRATAGSLILPPGPGGTMKRHSSRDAAGKPQRPRSAPRTSSCAERLQSEEQVSKNLFGPPLESAF
B4: FCHO2 linker (residues 314-444) (domain or fragment)
chain: NIPDVDEEGYSIKPETNQNDTKENHFYSSSDSDSEDEEPKKYRIEIKPMHPNNSHHTMASLDELKVSIGNITLSPAISRHSPVQMNRNLSNEELTKSKPSAPPNEKGTSDLLAWDPLFGPSLDSSSSSSLT

Key:
Cμ2 = biological target: T1, Cμ2; assay: ITC
AP2 α-appendage = AP2 α-appendage (UniProt P17427 702-938); assay: ITC
recombinant AP2 core = recombinant AP2 core (UniProt P18484 1-621; P63010 1-591; P84092 1-435; P62743 1-142); assay: BLI

Sequence of AP2 α-appendage (P17427 702-938): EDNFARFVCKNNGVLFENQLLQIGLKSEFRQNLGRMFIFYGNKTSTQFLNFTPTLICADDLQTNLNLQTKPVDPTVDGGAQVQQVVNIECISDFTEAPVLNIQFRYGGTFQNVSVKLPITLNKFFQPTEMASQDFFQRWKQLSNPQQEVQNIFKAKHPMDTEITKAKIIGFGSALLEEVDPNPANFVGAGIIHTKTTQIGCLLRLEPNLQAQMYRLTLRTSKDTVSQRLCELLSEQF

Binder | Kd (recombinant AP2 core) [µM] | further results
B1 | – | Kd (Cμ2): ~25 µM
B2 | – | Kd (AP2 α-appendage): ~50 µM
B3 | 8.5 ± 2.2 | –
B4 | 9.8 ± 1.5 | –
